Experimental findings from patent publication US20240350597A1, “PROTEASE INHIBITORS” (University College Dublin, priority 2023, published 2024) are described below.

This test deals with Cathepsin L (UniProt P07711). As to the kind of experiment: cell-based or functional assay.

For “Wild Type SerpinB3 (from UniProt P29508 1-390)”, the CatL inhibition (residual activity on Z-FR-AMC after 2 min incubation with serpin, 1:5 protease:serpin) amounted to 95%.
